What was measured:
[1] = target: S100A11 (Homo sapiens) (UniProt P31949); conditions: cited from earlier work
[2] = target: T1, human annexin A1 (hanA1) tagged emerald green fluorescent protein (EmGFP) (human, UniProt P04083 3-346); assay: pull-down; MBP-hS100A11 immobilised on amylose resin; hanA1-EmGFP in crude extract (clear lysate) in buffer B (20 mM Tris-HCl pH 8.0, 10% glycerol, 1 mM CaCl2), room temperature, 2 h; washed with buffer B containing 50 mM NaCl; eluted with buffer C (buffer A with 5 mM EDTA-Na2); SDS-PAGE; conditions: one partner purified
T1 construct: human annexin A1, amplified from a human brain cDNA library; EmGFP (reporter, detected by fluorescence) follows after the BamH I / Bgl II junction; also called hanA1-EmGFP; HanA1-EmGFP; source: E. coli BL21(DE3); in crude extract (clear lysate), or separated by CaCl2 precipitation and EDTA-Na2 resolubilisation; not shown: EmGFP, C-terminal, kept
T1 sequence (looked up): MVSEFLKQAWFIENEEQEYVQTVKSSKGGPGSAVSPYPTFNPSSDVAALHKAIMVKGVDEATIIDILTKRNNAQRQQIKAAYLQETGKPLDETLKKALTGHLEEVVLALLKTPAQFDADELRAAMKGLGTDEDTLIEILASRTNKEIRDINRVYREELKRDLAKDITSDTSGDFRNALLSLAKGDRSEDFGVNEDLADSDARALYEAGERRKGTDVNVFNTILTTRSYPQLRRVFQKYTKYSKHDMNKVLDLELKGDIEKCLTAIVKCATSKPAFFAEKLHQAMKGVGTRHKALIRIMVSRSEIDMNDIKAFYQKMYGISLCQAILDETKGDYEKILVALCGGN

Molecule	Kd [1] [µM]	binding result [2]
annexin I N-terminal peptide (from UniProt P04083)	5	–
MBP-hS100A11 (human S100A11 fused to maltose binding protein) (natural protein, UniProt P31949 2-105, looked up, human S100A11, amplified from a human cDNA library; also called MBP-S100A11; immobilized S100A11; source: E. coli, soluble; immobilised on amylose resin and washed; not shown: MBP, N-terminal, kept) AKISSPTETERCIESLIAVFQKYAGKDGYNYTLSKTEFLSFMNTELAAFTKNQKDPGVLDRMMKKLDTNSDGQLDFSEFLNLIGGLAMACHDSFLKAVPSQKRT	–	binds
